In US9095624:

Biological target: EGFR receptors of A431 human epidermoid carcinoma cells (human) (UniProt P00533)

Which Ka does the source give for “DTox-HMP-NLS-EGF after refolding (from UniProt P00588 198-384; P24232 1-396; P01133 971-1023)” here?
The Ka was 5.4e+13 M⁻¹.

What about the fold increase of affinity after refolding against before refolding of the same substance?
Its fold increase of affinity after refolding against before refolding is > 2.8 fold.
